# Measurements published in PMC2756588.
# T1: Abp1, P15891
# T1 sequence (P15891 535-592, looked up): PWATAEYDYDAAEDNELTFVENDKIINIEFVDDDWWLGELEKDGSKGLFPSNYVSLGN
# T2: Bbc1, P47068
# T2 sequence (P47068 1-78, looked up): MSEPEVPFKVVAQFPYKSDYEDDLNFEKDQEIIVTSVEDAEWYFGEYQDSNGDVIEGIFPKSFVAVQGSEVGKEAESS
# T3: Boi1, P38041
# T3 sequence (P38041 1-86, looked up): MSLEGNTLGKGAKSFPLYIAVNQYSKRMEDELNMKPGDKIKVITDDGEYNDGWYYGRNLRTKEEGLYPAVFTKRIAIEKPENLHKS
# T4: Boi2, P39969
# T4 sequence (P39969 32-116, looked up): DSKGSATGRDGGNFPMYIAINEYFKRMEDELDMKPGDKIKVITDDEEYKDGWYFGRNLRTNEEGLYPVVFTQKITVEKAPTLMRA
# T5: Bud14, P27637
# T5 sequence (P27637 247-328, looked up): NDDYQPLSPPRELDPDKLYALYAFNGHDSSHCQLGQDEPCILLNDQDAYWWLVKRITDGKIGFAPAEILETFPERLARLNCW
# T6: Bzz1-1, P38822
# T6 sequence (P38822 478-572, looked up): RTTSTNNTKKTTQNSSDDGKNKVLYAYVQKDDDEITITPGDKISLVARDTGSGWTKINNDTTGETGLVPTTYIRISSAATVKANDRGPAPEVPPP
# T7: Bzz1-2, P38822
# T7 sequence (P38822 568-633, looked up): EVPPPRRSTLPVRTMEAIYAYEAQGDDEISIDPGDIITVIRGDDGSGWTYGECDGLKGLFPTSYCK
# T8: Cdc25, P04821
# T8 sequence (P04821 50-136, looked up): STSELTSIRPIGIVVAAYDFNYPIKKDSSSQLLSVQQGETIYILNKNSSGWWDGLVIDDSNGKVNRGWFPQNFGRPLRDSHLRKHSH
# T9: Cyk3, Q07533
# T9 sequence (Q07533 1-83, looked up): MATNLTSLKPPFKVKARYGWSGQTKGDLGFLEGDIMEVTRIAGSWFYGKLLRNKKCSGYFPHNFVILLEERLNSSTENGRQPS
# T10: Fus1, P11710
# T10 sequence (P11710 432-512, looked up): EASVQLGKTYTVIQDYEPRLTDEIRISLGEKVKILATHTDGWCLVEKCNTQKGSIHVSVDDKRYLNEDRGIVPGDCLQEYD
# T11: Hof1, Q05080
# T11 sequence (Q05080 590-669, looked up): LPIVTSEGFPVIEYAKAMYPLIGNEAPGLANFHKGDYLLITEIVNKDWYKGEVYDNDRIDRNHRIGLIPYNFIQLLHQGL
# T12: Hse1, P38753
# T12 sequence (P38753 208-285, looked up): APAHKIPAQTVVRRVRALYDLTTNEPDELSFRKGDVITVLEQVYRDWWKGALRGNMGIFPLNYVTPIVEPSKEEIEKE
# T13: Lsb1, P53281
# T13 sequence (P53281 45-122, looked up): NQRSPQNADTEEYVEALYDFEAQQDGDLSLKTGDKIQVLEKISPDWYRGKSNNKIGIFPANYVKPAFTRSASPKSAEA
# T14: Lsb3, P43603
# T14 sequence (P43603 385-451, looked up): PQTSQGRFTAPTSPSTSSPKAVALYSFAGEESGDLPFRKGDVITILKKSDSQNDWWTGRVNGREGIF
# T15: Lsb4, P32793
# T15 sequence (P32793 402-468, looked up): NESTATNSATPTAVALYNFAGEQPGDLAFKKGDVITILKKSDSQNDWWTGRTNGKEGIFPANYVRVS
# T16: Myo5, Q04439
# T16 sequence (Q04439 1072-1160, looked up): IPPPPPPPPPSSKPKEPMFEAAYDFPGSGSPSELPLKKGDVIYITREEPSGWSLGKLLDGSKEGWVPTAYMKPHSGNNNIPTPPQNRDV
# T17: Nbp2, Q12163
# T17 sequence (Q12163 103-180, looked up): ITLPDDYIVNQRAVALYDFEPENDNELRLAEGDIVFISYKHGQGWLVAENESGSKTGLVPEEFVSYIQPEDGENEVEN
# T18: Pex13, P80667
# T18 sequence (P80667 295-386, looked up): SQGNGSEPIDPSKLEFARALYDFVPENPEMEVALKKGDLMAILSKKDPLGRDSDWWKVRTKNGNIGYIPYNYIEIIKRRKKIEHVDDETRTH
# T19: Pin3, Q06449
# T19 sequence (Q06449 53-122, looked up): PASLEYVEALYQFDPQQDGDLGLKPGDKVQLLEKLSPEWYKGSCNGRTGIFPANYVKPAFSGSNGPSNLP
# T20: Sla1-2, P32790
# T20 sequence (P32790 60-140, looked up): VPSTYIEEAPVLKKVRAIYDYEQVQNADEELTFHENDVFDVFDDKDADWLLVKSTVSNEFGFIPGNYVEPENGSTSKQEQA
# T21: Sla1-3, P32790
# T21 sequence (P32790 344-424, looked up): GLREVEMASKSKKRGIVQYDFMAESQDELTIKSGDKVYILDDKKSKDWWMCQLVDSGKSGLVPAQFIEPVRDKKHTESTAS
# Target: T1, Abp1, P15891
# Assay: SPOT array
# Conditions: median of control spots 935
row,SPOT intensity,Binder
1,14,NNFYRPLLRSVLVLL
2,10,HHNRRKPLEVYFKAT
3,63,LKQRFFLMFPKSIIW

# Target: T2, Bbc1, P47068
# Assay: SPOT array
# Conditions: median of control spots 796
row,SPOT intensity,Binder
1,37,NNFYRPLLRSVLVLL
2,7,HHNRRKPLEVYFKAT
3,23,LKQRFFLMFPKSIIW

# Target: Bem1-1, P29366
# Assay: SPOT array
# Conditions: median of control spots 4282
# Bem1-1, P29366, sequence (P29366 55-141): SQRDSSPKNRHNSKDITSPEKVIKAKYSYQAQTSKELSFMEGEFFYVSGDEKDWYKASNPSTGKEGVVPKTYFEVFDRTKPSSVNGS
row,SPOT intensity,Binder
1,0,NNFYRPLLRSVLVLL
2,43,HHNRRKPLEVYFKAT
3,0,LKQRFFLMFPKSIIW

# Target: Bem1-2, P29366
# Assay: SPOT array
# Conditions: median of control spots 4347
# Bem1-2, P29366, sequence (P29366 139-227): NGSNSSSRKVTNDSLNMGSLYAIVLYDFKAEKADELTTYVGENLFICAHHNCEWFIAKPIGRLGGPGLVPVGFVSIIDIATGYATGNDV
row,SPOT intensity,Binder
1,3,NNFYRPLLRSVLVLL
2,6,HHNRRKPLEVYFKAT
3,1,LKQRFFLMFPKSIIW

# Target: T3, Boi1, P38041
# Assay: SPOT array
# Conditions: median of control spots 1162
row,SPOT intensity,Binder
1,6,NNFYRPLLRSVLVLL
2,0,HHNRRKPLEVYFKAT
3,2,LKQRFFLMFPKSIIW

# Target: T4, Boi2, P39969
# Assay: SPOT array
# Conditions: median of control spots 1161
row,SPOT intensity,Binder
1,2,NNFYRPLLRSVLVLL
2,2,HHNRRKPLEVYFKAT
3,1,LKQRFFLMFPKSIIW

# Target: T5, Bud14, P27637
# Assay: SPOT array
# Conditions: median of control spots 956
row,SPOT intensity,Binder
1,14,NNFYRPLLRSVLVLL
2,10,HHNRRKPLEVYFKAT
3,27,LKQRFFLMFPKSIIW

# Target: T6, Bzz1-1, P38822
# Assay: SPOT array
# Conditions: median of control spots 4446
row,SPOT intensity,Binder
1,3,NNFYRPLLRSVLVLL
2,3,HHNRRKPLEVYFKAT
3,0,LKQRFFLMFPKSIIW

# Target: T7, Bzz1-2, P38822
# Assay: SPOT array
# Conditions: median of control spots 4538
row,SPOT intensity,Binder
1,2,NNFYRPLLRSVLVLL
2,0,HHNRRKPLEVYFKAT
3,0,LKQRFFLMFPKSIIW

# Target: T8, Cdc25, P04821
# Assay: SPOT array
# Conditions: median of control spots 969
row,SPOT intensity,Binder
1,22,NNFYRPLLRSVLVLL
2,10,HHNRRKPLEVYFKAT
3,25,LKQRFFLMFPKSIIW

# Target: T9, Cyk3, Q07533
# Assay: SPOT array
# Conditions: median of control spots 1451
row,SPOT intensity,Binder
1,9,NNFYRPLLRSVLVLL
2,3,HHNRRKPLEVYFKAT
3,4,LKQRFFLMFPKSIIW

# Target: T10, Fus1, P11710
# Assay: SPOT array
# Conditions: median of control spots 1200
row,SPOT intensity,Binder
1,13,NNFYRPLLRSVLVLL
2,565,HHNRRKPLEVYFKAT
3,38,LKQRFFLMFPKSIIW

# Target: GST
# Assay: SPOT array
# Conditions: median of control spots 978
row,SPOT intensity,Binder
1,1,NNFYRPLLRSVLVLL
2,1,HHNRRKPLEVYFKAT
3,0,LKQRFFLMFPKSIIW

# Target: T11, Hof1, Q05080
# Assay: SPOT array
# Conditions: median of control spots 4086
row,SPOT intensity,Binder
1,0,NNFYRPLLRSVLVLL
2,12,HHNRRKPLEVYFKAT
3,5,LKQRFFLMFPKSIIW

# Target: T12, Hse1, P38753
# Assay: SPOT array
# Conditions: median of control spots 1727
row,SPOT intensity,Binder
1,0,NNFYRPLLRSVLVLL
2,6,HHNRRKPLEVYFKAT
3,8,LKQRFFLMFPKSIIW

# Target: T13, Lsb1, P53281
# Assay: SPOT array
# Conditions: median of control spots 388
row,SPOT intensity,Binder
1,0,NNFYRPLLRSVLVLL
2,0,HHNRRKPLEVYFKAT
3,7,LKQRFFLMFPKSIIW

# Target: T14, Lsb3, P43603
# Assay: SPOT array
# Conditions: median of control spots 406
row,SPOT intensity,Binder
1,1,NNFYRPLLRSVLVLL
2,0,HHNRRKPLEVYFKAT
3,0,LKQRFFLMFPKSIIW

# Target: T15, Lsb4, P32793
# Assay: SPOT array
# Conditions: median of control spots 397
row,SPOT intensity,Binder
1,0,NNFYRPLLRSVLVLL
2,1,HHNRRKPLEVYFKAT
3,0,LKQRFFLMFPKSIIW

# Target: Myo3, P36006
# Assay: SPOT array
# Conditions: median of control spots 468
row,SPOT intensity,Binder
1,0,NNFYRPLLRSVLVLL
2,3,HHNRRKPLEVYFKAT
3,12,LKQRFFLMFPKSIIW

# Target: T16, Myo5, Q04439
# Assay: SPOT array
# Conditions: median of control spots 471
row,SPOT intensity,Binder
1,0,NNFYRPLLRSVLVLL
2,1,HHNRRKPLEVYFKAT
3,0,LKQRFFLMFPKSIIW

# Target: T17, Nbp2, Q12163
# Assay: SPOT array
# Conditions: median of control spots 357
row,SPOT intensity,Binder
1,3,NNFYRPLLRSVLVLL
2,0,HHNRRKPLEVYFKAT
3,9,LKQRFFLMFPKSIIW

# Target: T18, Pex13, P80667
# Assay: SPOT array
# Conditions: median of control spots 1341
row,SPOT intensity,Binder
1,4,NNFYRPLLRSVLVLL
2,16,HHNRRKPLEVYFKAT
3,21,LKQRFFLMFPKSIIW

# Target: T19, Pin3, Q06449
# Assay: SPOT array
# Conditions: median of control spots 2171
row,SPOT intensity,Binder
1,5,NNFYRPLLRSVLVLL
2,20,HHNRRKPLEVYFKAT
3,54,LKQRFFLMFPKSIIW

# Target: Rvs167, P39743
# Assay: SPOT array
# Conditions: median of control spots 2707
# Rvs167, P39743, sequence (P39743 419-482): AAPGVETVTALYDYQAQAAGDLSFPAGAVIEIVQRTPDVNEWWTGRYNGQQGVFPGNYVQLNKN
row,SPOT intensity,Binder
1,2,NNFYRPLLRSVLVLL
2,2,HHNRRKPLEVYFKAT
3,0,LKQRFFLMFPKSIIW

# Target: Sho1, P40073
# Assay: SPOT array
# Conditions: median of control spots 1148
# Sho1, P40073, sequence (P40073 287-367): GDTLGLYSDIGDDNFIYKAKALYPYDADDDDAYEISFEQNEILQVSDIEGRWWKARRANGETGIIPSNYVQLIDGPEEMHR
row,SPOT intensity,Binder
1,17,NNFYRPLLRSVLVLL
2,43,HHNRRKPLEVYFKAT
3,53,LKQRFFLMFPKSIIW

# Target: T20, Sla1-2, P32790
# Assay: SPOT array
# Conditions: median of control spots 712
row,SPOT intensity,Binder
1,0,NNFYRPLLRSVLVLL
2,0,HHNRRKPLEVYFKAT
3,0,LKQRFFLMFPKSIIW

# Target: T21, Sla1-3, P32790
# Assay: SPOT array
# Conditions: median of control spots 5475
row,SPOT intensity,Binder
1,4,NNFYRPLLRSVLVLL
2,14,HHNRRKPLEVYFKAT
3,17,LKQRFFLMFPKSIIW
